B1: m-HCT6 (dsDNA)
DNA 1: AAGCCTAAAGCTTTTTTTGCTGCTAAACCT
DNA 2: AGGTTTAGCAGCAAAAAAAGCTTTAGGCTT
B2: Wild-type HCT6 (dsDNA)
DNA 1: AAGCCTAAAGCTCACATGGCTGCTAAACCT
DNA 2: AGGTTTAGCAGCCATGTGAGCTTTAGGCTT
B3: Wild-type CYP98A14 (dsDNA)
DNA 1: ATTAGTGATTAACACGTGCACATTTATTAA
DNA 2: TTAATAAATGTGCACGTGTTAATCACTAAT

Assays:
[1] = target: SmMYC2a-His (Salvia miltiorrhiza, UniProt A0A088SC56 1-602); experiment: EMSA; EMSA: 2 ug purified protein with 2 ug 3'-biotin probe, room temperature, 10 min; buffer, salt and pH not stated; details: protein: recombinant; tags: His (text: C-terminal, cleavable; pET32a vector, BamHI/HindIII); chain copies: 2; label: 3' biotin; blunt
[2] = target: SmMYC2b-His (Salvia miltiorrhiza, UniProt UPI0025AD73A7 1-607); experiment: as above; details: protein: recombinant; tags: His (text: C-terminal, cleavable; pET32a vector, EcoRV/SalI); chain copies: 2; label: 3' biotin; blunt
Chain of SmMYC2b-His (chain, as listed by the source): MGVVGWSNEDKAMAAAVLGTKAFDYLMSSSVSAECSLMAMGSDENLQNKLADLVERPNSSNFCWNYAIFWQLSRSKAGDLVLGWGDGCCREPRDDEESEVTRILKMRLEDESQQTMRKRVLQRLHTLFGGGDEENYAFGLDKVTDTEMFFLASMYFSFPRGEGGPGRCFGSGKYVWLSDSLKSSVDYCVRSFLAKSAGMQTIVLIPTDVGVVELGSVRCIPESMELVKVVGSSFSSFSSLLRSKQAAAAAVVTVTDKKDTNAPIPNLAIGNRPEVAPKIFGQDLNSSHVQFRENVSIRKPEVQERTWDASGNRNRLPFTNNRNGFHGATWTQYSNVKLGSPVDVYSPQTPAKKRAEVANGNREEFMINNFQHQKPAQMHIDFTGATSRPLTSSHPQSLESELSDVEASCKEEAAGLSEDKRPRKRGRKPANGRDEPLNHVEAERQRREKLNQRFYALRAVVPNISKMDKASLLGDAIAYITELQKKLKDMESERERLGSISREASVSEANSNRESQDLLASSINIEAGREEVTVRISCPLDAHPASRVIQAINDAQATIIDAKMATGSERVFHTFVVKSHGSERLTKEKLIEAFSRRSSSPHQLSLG

Chain of SmMYC2a-His (A0A088SC56 entry or part of it): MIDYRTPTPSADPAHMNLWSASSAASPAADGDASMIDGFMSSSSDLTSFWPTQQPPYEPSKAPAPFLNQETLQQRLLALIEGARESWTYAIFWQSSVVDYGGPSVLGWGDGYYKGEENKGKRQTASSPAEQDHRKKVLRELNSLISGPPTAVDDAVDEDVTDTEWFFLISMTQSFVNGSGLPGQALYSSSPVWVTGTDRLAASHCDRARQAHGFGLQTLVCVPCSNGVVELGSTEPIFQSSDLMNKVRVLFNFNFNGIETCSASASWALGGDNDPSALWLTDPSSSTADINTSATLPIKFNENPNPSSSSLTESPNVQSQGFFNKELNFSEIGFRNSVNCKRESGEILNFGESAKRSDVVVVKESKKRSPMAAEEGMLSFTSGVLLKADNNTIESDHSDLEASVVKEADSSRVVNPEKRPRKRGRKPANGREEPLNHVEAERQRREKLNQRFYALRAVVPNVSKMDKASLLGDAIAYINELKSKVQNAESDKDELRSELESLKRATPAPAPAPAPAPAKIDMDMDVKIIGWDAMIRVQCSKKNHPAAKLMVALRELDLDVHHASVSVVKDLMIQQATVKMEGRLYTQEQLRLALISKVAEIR

| Binder | binding result [1] | binding result [2] |
| --- | --- | --- |
| B1 | no binding |  |
| B2 | binds |  |
| B3 | binds | binds |

— publication PMC4780012, “SmMYC2a and SmMYC2b played similar but irreplaceable roles in regulating the biosynthesis of tanshinones and phenolic acids in Salvia miltiorrhiza”
